The target in the assay is Gab2a 12mer peptide (Homo sapiens, UniProt Q9UQC2). As to the kind of experiment: SPR.
Chain of Gab2a 12mer peptide (Q9UQC2 whole entry): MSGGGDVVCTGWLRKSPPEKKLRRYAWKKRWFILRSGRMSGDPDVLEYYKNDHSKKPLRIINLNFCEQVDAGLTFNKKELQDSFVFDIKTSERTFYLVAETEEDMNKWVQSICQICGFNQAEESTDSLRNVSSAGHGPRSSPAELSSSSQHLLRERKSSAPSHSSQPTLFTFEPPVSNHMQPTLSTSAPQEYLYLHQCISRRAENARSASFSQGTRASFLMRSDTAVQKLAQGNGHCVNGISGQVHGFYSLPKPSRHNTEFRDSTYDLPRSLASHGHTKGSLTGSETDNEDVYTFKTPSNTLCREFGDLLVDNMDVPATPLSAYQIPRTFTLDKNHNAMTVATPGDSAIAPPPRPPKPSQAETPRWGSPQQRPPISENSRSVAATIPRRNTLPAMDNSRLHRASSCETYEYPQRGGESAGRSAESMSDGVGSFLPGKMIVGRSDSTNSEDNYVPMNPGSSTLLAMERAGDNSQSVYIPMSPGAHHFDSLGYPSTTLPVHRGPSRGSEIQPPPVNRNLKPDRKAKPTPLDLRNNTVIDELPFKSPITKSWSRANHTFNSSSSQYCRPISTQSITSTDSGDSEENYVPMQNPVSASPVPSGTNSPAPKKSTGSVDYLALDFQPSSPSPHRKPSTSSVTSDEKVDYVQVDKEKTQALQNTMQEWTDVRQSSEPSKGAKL

B1: Grb2 SH3C (protein)
chain: QQPTYVQALFDFDPQEDGELGFRRGDFIHVMDNSDPNWWKGACHGQTGMFPRNYVTPVNR
Molecule B1 returned a Kd of 161 µM.

The values above are taken from PMC12278339 (2025).
